14 molecules from patent publication US20230382997A1 (published 2023) can be followed below.

Positions count from the first letter of the chain named.

Common to all, as to assay: multimer staining
For assay [1], the target named is T1, MAGE A3 peptide on HLA-A*01:01 (human).
T1 peptide: EVDPIGHLY

The target in assay [2] is T2, CT 83 peptide on HLA-A*02:01 (human).
T2 peptide: LLASSILCA

Assay [3] has as its target T3, CT 83 peptide on HLA-B*44:02 (human).
T3 peptide: GEMSSNSTAL

The target in assay [4] is T4, MAGE B2 peptide on HLA-A*02:01 (human).
T4 peptide: GVYDGEEHSV

B1: TCR2 (TCR, V domains shown)
Valpha: ILNVEQSPQSLHVQEGDSTNFTCSFPSSNFYALHWYRWETAKSPEALFVMTLNGDEKKKGRISATLNTKEGYSYLYIKGSQPEDSATYLCAFSNARLMFGDGTQLVVKP
Vbeta: DTAVSQTPKYLVTQMGNDKSIKCEQNLGHDTMYWYKQDSKKFLKIMFSYNNKELIINETVPNRFSPKSPDKAHLNLHINSLELGDSAVYFCASSQEAGTGSYNEQFFGPGTRLTVL
Turning to B1, the binding result in assay [1] is listed as “recognises”.

B2: TCR346 (TCR)
alpha TRAV29DV5 TRAJ48 CDR3: CAARDISNFGNEKLTF
Vbeta: GAVVSQHPSRVICKSGTSVKIECRSLDFQATTMFWYRQFPKQSLMLMATSNEGSKATYEQGVEKDKFLINHASLTLSTLTVTSAHPEDSSFYICSARDHTSGTYEQYFGPGTRLTVT
As to B2, the binding result in assay [1] is given as “recognises”.

B3: TCR23 (TCR, V domains shown)
Valpha: LAKTTQPISMDSYEGQEVNITCSHNNIATNDYITWYQQFPSQGPRFIIQGYKTKVTNEVASLFIPADRKSSTLSLPRVSLSDTAVYYCLVGDIPSVDGGFKTIFGAGTRLFVKA
Vbeta: EAQVTQNPRYLITVTGKKLTVTCSQNMNHEYMSWYRQDPGLGLRQIYYSMNVEVTDKGDVPEGYKVSRKEKRNFPLILESPSPNQTSLYFCASSTSLELDQPQHFGDGTRLSIL
On to B3, for which, in assay [2], the binding result is listed as “recognises”.

B4: TCR19 (TCR, V domains shown)
Valpha: AQKVTQAQTEISVVEKEDVTLDCVYETRDTTYYLFWYKQPPSGELVFLIRRNSFDEQNEISGRYSWNFQKSTSSFNFTITASQVVDSAVYFCALLSSGGYNKLIFGAGTRLAVHP
Vbeta: NAGVTQTPKFQVLKTGQSMTLQCAQDMNHEYMSWYRQDPGMGLRLIHYSVGAGITDQGEVPNGYNVSRSTTEDFPLRLLSAAPSQTSVYFCASSYLSPAAGFSYEQYFGPGTRLTVT
Regarding B4, the binding result in assay [2] is “recognises”.

B5: TCR33 (TCR, V domains shown)
Valpha: AQSVTQLGSHVSVSEGALVLLRCNYSSSVPPYLFWYVQYPNQGLQLLLKYTSAATLVKGINGFEAEFKKSETSFHLTKPSAHMSDAAEYFCAVSDSSYKLIFGSGTRLLVRP
Vbeta: DAGVIQSPRHEVTEMGQEVTLRCKPISGHDYLFWYRQTMMRGLELLIYFNNNVPIDDSGMPEDRFSAKMPNASFSTLKIQPSEPRDSAVYFCASQSGDTQYFGPGTRLTVL
For B5, in assay [3], the binding result is “recognises”.

B6: TCR22 (TCR, V domains shown)
Valpha: AQSVAQPEDQVNVAEGNPLTVKCTYSVSGNPYLFWYVQYPNRGLQFLLKYITGDNLVKGSYGFEAEFNKSQTSFHLKKPSALVSDSALYFCAVRDDNAGNMLTFGGGTRLMVKP
Vbeta: DTGVSQNPRHKITKRGQNVTFRCDPISEHNRLYWYRQTLGQGPEFLTYFQNEAQLEKSRLLSDRFSAERPKGSFSTLEIQRTEQGDSAMYLCASSLANTGELFFGEGSRLTVL
Take B6: in assay [2], the binding result is on record as “recognises”.

B7: TCR29 (TCR, V domains shown)
Valpha: AQKVTQAQTEISVVEKEDVTLDCVYETRDTTYYLFWYKQPPSGELVFLIRRNSFDEQNEISGRYSWNFQKSTSSFNFTITASQVVDSAVYFCALSEAWGNAGNMLTFGGGTRLMVKP
Vbeta: GAGVSQSPRYKVTKRGQDVALRCDPISGHVSLYWYRQALGQGPEFLTYFNYEAQQDKSGLPNDRFSAERPEGSISTLTIQRTEQRDSAMYRCASSPGQQNTEAFFGQGTRLTVV
B7: the binding result in assay [3] was “recognises”.

B8: TCR32 (TCR, V domains shown)
Valpha: ILNVEQSPQSLHVQEGDSTNFTCSFPSSNFYALHWYRWETAKSPEALFVMTLNGDEKKKGRISATLNTKEGYSYLYIKGSQPEDSATYLCAFIVHQAGTALIFGKGTTLSVSS
Vbeta: B7 Vbeta with P96L, Q98L, Q99L, N100Y, T101N, A103Q, Q107P, V114L
For B8, the binding result in assay [3] was “recognises”.

B9: TCR4 (TCR, V domains shown)
Valpha: AQSVAQPEDQVNVAEGNPLTVKCTYSVSGNPYLFWYVQYPNRGLQFLLKYITGDNLVKGSYGFEAEFNKSQTSFHLKKPSALVSDSALYFCAVRDAMGGSYIPTFGRGTSLIVHP
Vbeta: DGGITQSPKYLFRKEGQNVTLSCEQNLNHDAMYWYRQDPGQGLRLIYYSQIVNDFQKGDIAEGYSVSREKKESFPLTVTSAQKNPTAFYLCASSTGISEQFFGPGTRLTVL
Take B9: the binding result in assay [1] is “recognises”.

B10: TCR26 (TCR, V domains shown)
Valpha: GENVEQHPSTLSVQEGDSAVIKCTYSDSASNYFPWYKQELGKRPQLIIDIRSNVGEKKDQRIAVTLNKTAKHFSLHITETQPEDSAVYFCAASSLREGYSTLTFGKGTMLLVSP
Vbeta: NAGVTQTPKFRVLKTGQSMTLLCAQDMNHEYMYWYRQDPGMGLRLIHYSVGEGTTAKGEVPDGYNVSRLKKQNFLLGLESAAPSQTSVYFCASSSTDLNEQFFGPGTRLTVL
Regarding B10, the binding result in assay [4] is reported as “recognises”.

B11: TCR28 (TCR, V domains shown)
Valpha: AQKITQTQPGMFVQEKEAVTLDCTYDTSDQSYGLFWYKQPSSGEMIFLIYQGSYDEQNATEGRYSLNFQKARKSANLVISASQLGDSAMYFCAMRGDPQGAQKLVFGQGTRLTINP
Vbeta: ETGVTQTPRHLVMGMTNKKSLKCEQHLGHNAMYWYKQSAKKPLELMFVYSLEERVENNSVPSRFSPECPNSSHLFLHLHTLQPEDSALYLCASSQGRGKNIQYFGAGTRLSVL
Take B11: the binding result in assay [4] is “recognises”.

B12: TCR18 (TCR, V domains shown)
Valpha: AQTVTQSQPEMSVQEAETVTLSCTYDTSESDYYLFWYKQPPSRQMILVIRQEAYKQQNATENRFSVNFQKAAKSFSLKISDSQLGDAAMYFCAYRDNFNKFYFGSGTKLNVKP
Vbeta: DSGVTQTPKHLITATGQRVTLRCSPRSGDLSVYWYQQSLDQGLQFLIQYYNGEERAKGNILERFSAQQFPDLHSELNLSSLELGDSALYFCASSGTGGAYNEQFFGPGTRLTVL
Take B12: in assay [2], the binding result is reported as “recognises”.

B13: TCR30 (TCR, V domains shown)
Valpha: EDKVVQSPLSLVVHEGDTVTLNCSYEVTNFRSLLWYKQEKKAPTFLFMLTSSGIEKKSGRLSSILDKKELFSILNITATQTGDSAVYLCAVVPDNTDKLIFGTGTRLQVFP
Vbeta: GAGVSQSPRYKVTKRGQDVALRCDPISGHVSLYWYRQALGQGPEFLTYFNYEAQQDKSGLPNDRFSAERPEGSISTLTIQRTEQRDSAMYRCASSWGGSNTGELFFGEGSRLTVL
In the case of B13, in assay [3], the binding result is listed as “recognises”.

B14: TCR54 (TCR, V domains shown)
Valpha: EDQVTQSPEALRLQEGESSSLNCSYTVSGLRGLFWYRQDPGKGPEFLFTLYSAGEEKEKERLKATLTKKESFLHITAPKPEDSATYLCAVYNQAGTALIFGKGTTLSVSS
Vbeta: EAQVTQNPRYLITVTGKKLTVTCSQNMNHEYMSWYRQDPGLGLRQIYYSMNVEVTDKGDVPEGYKVSRKEKRNFPLILESPSPNQTSLYFCASSLYSTDTQYFGPGTRLTVL
With B14, the binding result in assay [1] is recorded as “recognises”.
